In patent publication US20130252821A1, “METHODS AND COMPOSITIONS FOR THE TREATMENT AND DIAGNOSIS OF DISEASES CHARACTERIZED BY VASCULAR LEAK, HYPOTENSION, OR A PROCOAGULANT STATE” (Beth Israel Deaconess Medical Center, Inc., priority 2005, published 2013):

Key:
[1] = system: mice (female FVB strain), lung; assay: In vivo permeability assay (Evans blue, LPS); design: species or system mouse; conditions: Ang-1 10 mcg ip x 2 doses
Protocol: Mice (8-12 weeks old, female FVB strain) were pretreated with Ang-1 (10 mcg, ip). 8 hours after the first Ang-1 injection, the second dose of Ang-1 (10 mcg, ip) and LPS (100 μg, ip) were co-injected. Lung permeability was assessed 16 hours after the second injection. Mice were anesthetized with Avertin (2,2,2-Tribromoethanol) and 2% Evans blue (50 μl) was then injected into the retro-orbital sinus. Ten minutes after Evans blue injection, mice were sacrificed and perfused with PBS with 2 mM EDTA for 10 minutes through a cannula placed in the right ventricle. […] Organs were then harvested and homogenized in 1.5 nil formamide. Evans blue was extracted by incubating the samples at 70° C. for 24 hours, and the concentration of Evans blue was estimated by dual-wavelength spectrophotometer (620 and 740 nm). The following formula was used to correct optical densities (E) for contamination with heme pigments: E620 (corrected)=E620−(1.426XE740+0.030).

[2] = system: Tie2; assay: Tie2 phosphorylation by Ang-1 in HMVEC-L; assay type: cell-based, human; conditions: Ang-1 100 ng/ml, 15 minutes
Protocol: We lysed HMVEC-L with Triton buffer (50 mM Tris-HCl pH 8.0, 150 mM NaCl, 1% Triton X 100, and 5 mM EDTA) supplemented with protease inhibitors (Roche Diagnostics), 1 mM NaF and 1 mM Na3VO4, adjusting protein concentration by BCA protein assay (Pierce) and incubated 200 μg of total protein with anti-Tie2-Ab (clone Ab33, Upstate, Lake Placid, N.Y.) or p190RhoGAP Ab (Transduction laboratory, Lexington, Ky.) for 3 hours, followed by incubation with protein A sepharose (Zymed, San Francisco, Calif.) for 2 hours at 4° C. After washing the beads, proteins were eluted by heating in SDS-sample buffer and detected by immunoblotting with anti-phospho-tyrosine (clone 4G10, Upstate), anti-Tie-2 Ab, or anti-p190RhoGAP Ab.

[3] = system: mice (female FVB strain), lung; assay: Lung histology after LPS; assay type: in vivo, mouse; conditions: Ang-1 10 μg ip x 2 doses
Protocol: Mice were treated as above and lungs were harvested, fixed in 10% formalin, embedded in paraffin, sectioned, and stained with hematoxilin and eosin. In Vivo Delivery of siRNA: Delivery of siRNA into mice was performed by TransIT® Hydrodynamic delivery solution (Mires, Madision, Wis.) per the manufacturer's instruction. Mice were injected with either 10 μg control siRNA or 10 μg p190RhoGAP siRNA in 2 nil delivery solution injected into the tail vein over 7 seconds. Four days later, p190RhoGAP knockdown was confirmed by lysing organs in RIPA buffer and performing Western analysis as outlined above. In vivo permeability and histological examination were performed as described above.

[4] = system: MLC phosphorylation (MLC-P); assay: MLC-P immunoblot in HMVEC-L; assay type: cell-based, human; conditions: Ang-1, HMVEC-L
Protocol: HMVEC-L were washed with ice-cold PBS three times and lysed with ice-cold RIPA buffer (50 mM Tris-HCl pH7.4, 150 mM NaCl, 1% NP-40, 0.5% Sodium Deoxycholate, 0.1% SDS and 1 mM EDTA) supplemented with protease inhibitors (Roche Diagnostics, Indianapolis, Ind.), 1 mM NaF and 1 mM Na3VO4. Lysates were sonicated and centrifuged at 10,000 rpm for 10 minutes at 4° C., and supernatants were collected. Protein concentrations were determined by BCA protein assay with bovine serum albumin as standard (Pierce, Rockford, Ill.). Lysates were electrophoresed using NuPAGE system (Invitrogen Life Technologies, Franklin Lakes, N.J.) and transferred to PVDF membrane and immunoblotted with specific primary antibodies. Binding of primary antibodies was detected using horseradish peroxidase-conjugated secondary antibodies (Amersham Bioscience, Piscataway, N.J.) and SuperSignal WestDura (Pierce) as a chemiluminescence substrate. Primary antibodies were obtained from these suppliers: anti-phospho-Akt Ab (Ser 473), anti-Akt Ab and anti-phospho-myosin light chain 2 (Ser19) Ab were from Cell Signaling Technology; anti-GAPDH Ab was from Chemicon International (Temecula, Calif.).

[5] = system: RhoA; assay: Rho activity assay (pull-down) in HMVEC-L; assay type: cell-based, human
Protocol: (§1) These were performed and quantified using the commercially available kit according to the manufacturer's instruction (Cytoskeleton, Denver, Colo.). After signal starvation, HMVEC-L were treated with vehicle, Ang-1 (100 ng/ml) with or without inhibitor for the indicated time and harvested with lysis buffer. Following a brief centrifugation to remove cell debris, lysates from the cells containing equivalent protein concentrations were incubated for 60 minutes with 40 μL slurry of a GST-fusion protein composed of Rac1 or RhoA effector proteins coupled to agarose beads. After washing with lysis buffer, samples were subjected to immunoblotting and detected with anti-Rac1 or anti-RhoA antibody (Santa Cruz Biotechnology, Santa Cruz, Calif.). Whole cell lysates were also run to determine the total amount of Rac1 or RhoA protein.

[6] = system: HMVEC monolayers; assay: Immunofluorescence of endothelial architecture (F-actin, VE-cadherin); assay type: cell-based, human; conditions: 10% patient serum plus 100 ng/ml recombinant human Ang-1
Protocol: HMVEC were grown to confluence on glass coverslips coated with 1% gelatin. The cells were fixed for 10 minutes in 4% paraformaldehyde in PBS, incubated for 5 min in 0.5% Triton X-100 in PBS. After blocking, the monolayers were processed for staining with anti-VE-cadherin monoclonal antibody (BD Pharmingen, San Diego, Calif.) and Alexa Fluoro 488 goat anti-mouse IgG, rhodamine phalloidin (Molecular Probe, Eugene, Oreg.) for F-actin staining and TOPRO-3-iodine (Molecular Probe) for nuclear staining. Fluorescence images were obtained using a Bio Rad MRC confocal fluorescence microscope. For human subject serum experiments, serum was diluted to 10% with EBM-2 and filtered with low protein binding PVDF membrane (0.22 μm, Millipore Corp) prior to application on endothelial cell monolayers.

[7] = system: HMVEC-L; assay: Immunohistochemistry of HMVEC-L (F-actin, MLC-P, VE-cadherin); assay type: cell-based, human
Protocol: HMVEC-L were grown to confluent on glass coverslips coated with 0.1% gelatin (Attachment factor, Cascade Biologics, Portland, Oreg.) in 5% FBS/EGM2. […] We used rhodamine phalloidin (Molecular Probe) for F-actin staining and TOPRO®-3-iodine (Molecular Probe) for nuclear staining. Fluorescence images were obtained using a Bio Rad MRC confocal fluorescence microscope.

[8] = system: Rac1; assay: Rac1 activity assay (pull-down); assay type: cell-based, human
Protocol: as §1

B1: Ang-1: Human recombinant angiopoietin-1 purchased from R&D systems; Tie-2 agonist, endogenous Ang-2 antagonist (protein, listed as Homo sapiens)
chain: MTVFLSFAFLAAILTHIGCSNQRRSPENSGRRYNRIQHGQCAYTFILPEHDGNCRESTTDQYNTNALQRDAPHVEPDFSSQKLQHLEHVMENYTQWLQKLENYIVENMKSEMAQIQQNAVQNHTATMLEIGTSLLSQTAEQTRKLTDVETQVLNQTSRLEIQLLENSLSTYKLEKQLLQQTNEILKIHEKNSLLEHKILEMEGKHKEELDTLKEEKENLQGLVTRQTYIIQELEKQLNRATTNNSVLQKQQLELMDTVHNLVNLCTKEGVLLKGGKREEEKPFRDCADVYQAGFNKSGIYTIYINNMPEPKKVFCNMDVNGGGWTVIQHREDGSLDFQRGWKEYKMGFGNPSGEYWLGNEFIFAITSQRQYMLRIELMDWEGNRAYSQYDRFHIGNEKQNYRLYLKGHTGTAGKQSSLILHGADFSTKDADNDNCMCKCALMLTGGWWFDACGPSNLNGMFYTAGQNHGKLNGIKWHYFKGPSYSLRSTTMMIRPLDF
With B1 the “effect on endotoxin-increased lung permeability” value [1] was “blocked”, the Tie2 phosphorylation [2] was “induces Tie2 phosphorylation” and the “effect on LPS-induced edema and leukocyte infiltration” value [3] was “reversed”. The “time of peak MLC phosphorylation (MLC-P) after stimulation” value [4] was 0.5 to 1.0 h, the RhoA activity ([5]; HMVEC-L treated with Ang-1) was “decreased 30 minutes after” and the “effect on endotoxin-induced RhoA activity” value ([5]; co-incubation with Ang-1) was “reversed”. For the same molecule, the “reversal of gap formation provoked by high Ang-2 sepsis serum” value [6] was “reversed”, the “cytoskeleton and junction staining compared to control cells” value ([7]; Ang-1, confluent HMVEC-L, 30 min) was “increase in cortical actin, peripheral MLC-P, and increased VE-cadherin staining at cell junctions” and the “effect on endotoxin-induced structural derangements” value ([7]; endotoxin plus Ang-1) was “reverted the endotoxin-induced derangements to a normal appearance”. For the same molecule, the Rac1 activity ([8]; HMVEC-L treated with Ang-1) was “increased within 15 minutes” and the “effect on endotoxin-induced change of Rac1 activity” value ([8]; co-incubation with Ang-1) was “reversed”.
